# Results taken from patent US20230203146A1.
# Biological target: FLAG-tagged human Ang2 (human) (UniProt O15123)
# Test: competition ELISA: FLAG-hAng2 binding to coated hTie2-Fc
# FLAG-tagged human Ang2 (human), sequence (O15123 19-496): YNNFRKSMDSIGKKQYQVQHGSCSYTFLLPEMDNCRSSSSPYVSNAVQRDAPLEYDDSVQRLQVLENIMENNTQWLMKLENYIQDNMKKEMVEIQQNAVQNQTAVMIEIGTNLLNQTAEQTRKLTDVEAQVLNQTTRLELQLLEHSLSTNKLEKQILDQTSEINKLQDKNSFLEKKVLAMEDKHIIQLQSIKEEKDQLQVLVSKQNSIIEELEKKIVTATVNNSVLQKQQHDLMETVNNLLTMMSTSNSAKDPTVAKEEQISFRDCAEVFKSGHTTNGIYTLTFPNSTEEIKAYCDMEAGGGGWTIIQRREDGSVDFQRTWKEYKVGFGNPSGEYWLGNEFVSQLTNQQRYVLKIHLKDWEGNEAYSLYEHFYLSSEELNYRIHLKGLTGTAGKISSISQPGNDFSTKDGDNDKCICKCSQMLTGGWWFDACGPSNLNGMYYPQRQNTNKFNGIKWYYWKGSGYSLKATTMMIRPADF
row,Binder,IC50 [nM]
1,"VHH 00039 (VHH, not shown: small tags and cut ends) VHH: EVQLVESGGGLVQPGGSLRLSCAASGFTFDDYALGWFRQAAGKEREGVSCIRCSDGSTYYADSVKGRFTISRDNSKNTVYLQMNSLRPEDTAVYYCAASIVPRSKLEPYEYDAWGQGTLVTVSS",11.9
2,"VHH 00921 (VHH, not shown: small tags and cut ends) VHH: EVQLVESGGGLVQPGGSLRLSCAASGFTFDDYALGWFRQAPGKEREGVSCIRCSGGSTYYADSVKGRFTISSDNSKNTVYLQMNSLRPEDTAVYYCAASIVPRSKLEPYEYDAWGQGTLVTVSS",30.4
3,"VHH 00040 (VHH, not shown: small tags and cut ends) VHH: EVQLVESGGGLVQPGGSLRLSCAASGFTFDDYALGWFRQAPGKEREGVSCIRCSDGSTYYADSVKGRFTISRDNSKNTVYLQMNSLRPEDTAVYYCAASIVPRSKLEPYEYDAWGQGTLVTVSS",6.4
4,"VHH 00925 (VHH, not shown: small tags and cut ends) VHH: DVQLVESGGGLVQPGGSLRLSCAASGFTFDDYALGWFRQAPGKEREGVSCIRCSGGSTYYADSVKGRFTISSDNSKNTVYLQMNSLRPEDTAVYYCAASIVPRSKLEPYEYDAWGQGTLVTVSS",22.1
5,"VHH 00050 (VHH, not shown: small tags and cut ends) VHH: EVQLVESGGGLVQPGGSLRLSCAASGFTFDDYALGWFRQAPGKEREGVSCIRCSDGSTYYADSVKGRFTISSDNSKNTVYLQMNSLRPEDTAVYYCAASIVPRSKLEPYEYDAWGQGTLVTVSS",6
6,"VHH 00049 (VHH, not shown: small tags and cut ends) VHH: EVQLVESGGGLVQPGGSLRLSCAASGFTFDDYALGWFRQAAGKEREGVSCIRCSDGSTYYADSVKGRFTISSDNSKNTVYLQMNSLRPEDTAVYYCAASIVPRSKLEPYEYDAWGQGTLVTVSS",6.9
7,"VHH 00051 (VHH, not shown: small tags and cut ends) VHH: EVQLVESGGGLVQPGGSLRLSCAASGFTFDDYALGWFRQAAGKEREGVSCIRCSGGSTYYADSVKGRFTISSDNSKNTVYLQMNSLRPEDTAVYYCAASIVPRSKLEPYEYDAWGQGTLVTVSS",16.1
8,"VHH 00930 (VHH, not shown: small tags and cut ends) VHH: EVQLVESGGGLVQPGGSLRLSCAASGFALDYYAIGWFRQAPGKEREGVSCISSSGGITYYADSVKGRFTISRDNSKNTVYLQMNSLRPEDTAVYYCATESGGYIDYDCRGLGYDYWGQGTLVTVSS",0.19
9,"VHH 00924 (VHH, not shown: small tags and cut ends) VHH: DVQLVESGGGLVQPGGSLRLSCAASGFALDYYAIGWFRQAPGKEREGVSCISSSGGITYYADSVKGRFTISRDNSKNTVYLQMNSLRPEDTAVYYCATDSGGYIDYDCMGLGYDYWGQGTLVTVSS",0.11
10,"VHH 00926 (VHH, not shown: small tags and cut ends) VHH: EVQLVESGGGLVQPGGSLRLSCAASGFALDYYAIGWFRQAPGKEREGVSCISSSGGITYYADSVKGRFTISRDNSKNTVYLQMNSLRPEDTAVYYCATDSGGYIDYDCQGLGYDYWGQGTLVTVSS",0.25
11,"VHH 00929 (VHH, not shown: small tags and cut ends) VHH: EVQLVESGGGLVQPGGSLRLSCAASGFALDYYAIGWFRQAPGKEREGVSCISSSGGITYYADSVKGRFTISRDNSKNTVYLQMNSLRPEDTAVYYCATESGGYIDYDCQGLGYDYWGQGTLVTVSS",0.15
12,"VHH 00928 (VHH, not shown: small tags and cut ends) VHH: EVQLVESGGGLVQPGGSLRLSCAASGFALDYYAIGWFRQAPGKEREGVSCISSSGGITYYADSVKGRFTISRDNSKNTVYLQMNSLRPEDTAVYYCATDSGGYIDYDCSGLGYDYWGQGTLVTVSS",0.22
13,"VHH 00927 (VHH, not shown: small tags and cut ends) VHH: EVQLVESGGGLVQPGGSLRLSCAASGFALDYYAIGWFRQAPGKEREGVSCISSSGGITYYADSVKGRFTISRDNSKNTVYLQMNSLRPEDTAVYYCATDSGGYIDYDCRGLGYDYWGQGTLVTVSS",0.22
14,"VHH 00931 (VHH, not shown: small tags and cut ends) VHH: EVQLVESGGGLVQPGGSLRLSCAASGFALDYYAIGWFRQAPGKEREGVSCISSSGGITYYADSVKGRFTISRDNSKNTVYLQMNSLRPEDTAVYYCATESGGYIDYDCSGLGYDYWGQGTLVTVSS",0.17
15,"VHH 00920 (VHH, not shown: small tags and cut ends) VHH: EVQLVESGGGLVQPGGSLRLSCAASGFALDYYAIGWFRQAPGKEREGVSCISSSGGITYYADSVKGRFTISRDNSKNTVYLQMNSLRPEDTAVYYCATDSGGYIDYDCMGLGYDYWGQGTLVTVSS",0.13
16,"VHH 00046 (VHH, not shown: small tags and cut ends) VHH: EVQLVESGGGLVQPGGSLRLSCAASGFALDYYAIGWFRQAPGKEREGVSCISSSGGITYYVDSVKGRFTISRDNSKNTVYLQMNSLRPEDTAVYYCATDSGGYIDYDCMGLGYDYWGQGTLVTVSS",0.095
17,"VHH 00045 (VHH, not shown: small tags and cut ends) VHH: EVQLVESGGGLVQPGGSLRLSCAASGFALDYYAIGWFRQAPGKEREGVSCISSSDGITYYADSVKGRFTISRDNSKNTVYLQMNSLRPEDTAVYYCATDSGGYIDYDCMGLGYDYWGQGTLVTVSS",0.12
18,"VHH 00902 (VHH, not shown: small tags and cut ends) VHH: EVQLVESGGGLVQAGGSLRLSCAASGFTLDDYAIGWFRQAPGKEREGVSAIRDSGGSTYYADSVKGRFTISSDNDKNTVYLQMNSLKPEDTAVYYCAAVPAGRLRFGEQWYPLYEYDAWGQGTLVTVSS",1.3
19,"VHH 00900 (VHH, not shown: small tags and cut ends) VHH: EVQLVESGGGLVQAGGSLRLSCAVSGFTLDDYAIGWFRQAPGKEREGVSSIRDNDGSTYYADSVKGRFTISSDNDKNTVYLQMNSLKPEDTAVYYCAAVPAGRLRFGEQWYPLYEYDAWGQGTLVTVSS",0.2
20,"VHH 00898 (VHH, not shown: small tags and cut ends) VHH: EVQLVESGGGLVQAGGSLRLSCAASGFTLDDYAIGWFRQAPGKEREGVSAIRDNDGSTYYADSVKGRFTISSDNDKNTVYLQMNSLKPEDTAVYYCAAVPAGRLRFGEQWYPLYEYDAWGQGTLVTVSS",1.2
21,"VHH 00899 (VHH, not shown: small tags and cut ends) VHH: EVQLVESGGGLVQAGGSLRLSCAASGFTLDDYAIGWFRQAPGKEREGVSSIRDIDGSTYYADSVKGRFTISSDNDKNTVYLQMNSLKPEDTAVYYCAAVPAGRLRFGEQWYPLYEYDAWGQGTLVTVSS",0.9

# Binders with a lower IC50, results first:
row,IC50 [nM],Binder
1,0.069,"VHH 00044 (VHH, not shown: small tags and cut ends) VHH: EVQLVESGGGLVQPGGSLRLSCAASGFALDYYAIGWFRQAPGKEREGVSCISSSDGITYYVDSVKGRFTISRDNSKNTVYLQMNSLRPEDTAVYYCATDSGGYIDYDCMGLGYDYWGQGTLVTVSS"
2,0.089,"VHH 00903 (VHH, not shown: small tags and cut ends) VHH: EVQLVESGGGLVQPGGSLRLSCAASGFTLDDYAIGWFRQAPGKEREGVSSIRDNGGSTYYADSVKGRFTISSDNSKNTVYLQMNSLRPEDTAVYYCAAVPAGRLRFGEQWYPIYEYDAWGQGTLVTVSS"
3,0.045,"VHH 00906 (VHH, not shown: small tags and cut ends) VHH: EVQLVESGGGLVQPGGSLRLSCAASGFTIDDYAIGWFRQAPGKEREGVSSIRDNGGSTYYADSVKGRFTISSDNSKNTVYLQMNSLRPEDTAVYYCAAVPAGRLRYGEQWYPIYEYDAWGQGTLVTVSS"
4,0.079,"VHH 00905 (VHH, not shown: small tags and cut ends) VHH: EVQLVESGGGLVQPGGSLRLSCAASGFTIDDYAIGWFRQAPGKEREGVSSIRDNGGSTYYADSVKGRFTISSDNSKNTVYLQMNSLRPEDTAVYYCAAVPAGRLRFGEQWYPIYEYDAWGQGTLVTVSS"
5,0.059,"VHH 00911 (VHH, not shown: small tags and cut ends) VHH: EVQLVESGGGLVQPGGSLRLSCAASGLTLDDYAIGWFRQAPGKEREGVSSIRDNGGSTYYADSVKGRFTISSDNSKNTVYLQMNSLRPEDTAVYYCAAVPAGRLRFGEQWYPIYEYDAWGQGTLVTVSS"
6,0.062,"VHH 00904 (VHH, not shown: small tags and cut ends) VHH: EVQLVESGGGLVQPGGSLRLSCAASGFTLDDYAIGWFRQAPGKEREGVSSIRDNGGSTYYADSVKGRFTISSDNSKNTVYLQMNSLRPEDTAVYYCAAVPAGRLRYGEQWYPIYEYDAWGQGTLVTVSS"
7,0.037,"VHH 00914 (VHH, not shown: small tags and cut ends) VHH: EVQLVESGGGLVQPGGSLRLSCAASGLTIDDYAIGWFRQAPGKEREGVSSIRDNGGSTYYADSVKGRFTISSDNSKNTVYLQMNSLRPEDTAVYYCAAVPAGRLRYGEQWYPIYEYDAWGQGTLVTVSS"
8,0.042,"VHH 00910 (VHH, not shown: small tags and cut ends) VHH: EVQLVESGGGLVQPGGSLRLSCAASGITIDDYAIGWFRQAPGKEREGVSSIRDNGGSTYYADSVKGRFTISSDNSKNTVYLQMNSLRPEDTAVYYCAAVPAGRLRYGEQWYPIYEYDAWGQGTLVTVSS"
9,0.042,"VHH 00913 (VHH, not shown: small tags and cut ends) VHH: EVQLVESGGGLVQPGGSLRLSCAASGLTIDDYAIGWFRQAPGKEREGVSSIRDNGGSTYYADSVKGRFTISSDNSKNTVYLQMNSLRPEDTAVYYCAAVPAGRLRFGEQWYPIYEYDAWGQGTLVTVSS"
10,0.062,"VHH 00907 (VHH, not shown: small tags and cut ends) VHH: EVQLVESGGGLVQPGGSLRLSCAASGITLDDYAIGWFRQAPGKEREGVSSIRDNGGSTYYADSVKGRFTISSDNSKNTVYLQMNSLRPEDTAVYYCAAVPAGRLRFGEQWYPIYEYDAWGQGTLVTVSS"
11,0.062,"VHH 00912 (VHH, not shown: small tags and cut ends) VHH: EVQLVESGGGLVQPGGSLRLSCAASGLTLDDYAIGWFRQAPGKEREGVSSIRDNGGSTYYADSVKGRFTISSDNSKNTVYLQMNSLRPEDTAVYYCAAVPAGRLRYGEQWYPIYEYDAWGQGTLVTVSS"
12,0.053,"VHH 00909 (VHH, not shown: small tags and cut ends) VHH: EVQLVESGGGLVQPGGSLRLSCAASGITIDDYAIGWFRQAPGKEREGVSSIRDNGGSTYYADSVKGRFTISSDNSKNTVYLQMNSLRPEDTAVYYCAAVPAGRLRFGEQWYPIYEYDAWGQGTLVTVSS"
